Data on 4 molecules can be found in patent publication US20250282892A1 (BIOMUNEX PHARMACEUTICALS, published 2025).

One assay deals with T1, EGFR His tag (UniProt P00533 25-645).
T1 construct: Recombinant His-tagged antigen; not shown: His tag
The assay can be described thus: direct ELISA, His-tagged antigen coated, anti-human Fc-HRP detection.

The next assay concerns the target T2, HER3 His tag (UniProt P21860 20-643).
T2 construct: Recombinant His-tagged antigen; not shown: His tag
The description is as above.

For assay [1], the target named is T3, HER3 protein expressed on the cell surface of SW-1990 cells (UniProt P21860 20-1342, limits assumed).
T3 construct: whole, on cells; SW-1990 cells carry HER3 and EGFR together; the flow cytometry signal is not split between them
The assay can be described thus: flow cytometry on SW-1990 cells (FIG. 10). In general terms: In flow cytometry, cells or beads pass a laser one at a time.

Assay [2] addresses T4, EGFR protein expressed on the cell surface of SW-1990 cells (UniProt P00533 25-1210, limits assumed).
T4 construct: whole, on cells; SW-1990 cells carry HER3 and EGFR together; the flow cytometry signal is not split between them
The assay can be described thus: flow cytometry on SW-1990 cells (FIG. 10).

Experimental for EGFR His tag: (§1) 800 ng/ml of EGFR His tag, HER2 His tag or HER3 His tag antigens were diluted in 50 μl of 1×PBS in Nunc Maxisorp 96 plates. The plates were incubated overnight at 4° C., then washed 4 times with 0.1% PBS-Tween (PBS-T) and saturated with PBS-T containing 1% BSA for 1 h at 37° C. After 4 washes in 0.1% PBS-T, the antibodies (BsAbs, MAbs, and controls), were diluted in a final volume of 50 μl in 1×PBS and incubated for 1 h at 37° C. After 4 washes in 0.1% PBS-T, the detection antibody (HRP-coupled anti-human Fc) was added at 1/40000 in a 50 μl volume of 1×PBS and incubated for 1 h at 37° C. The plate was washed 4 times in 0.1% PBS-T and 50 μl of TMB was added to each well for 10-30 min at room temperature and protected from light. The reaction was stopped with 50 μl of 1M hydrochloric acid before reading the optical density at a wavelength of 450 nm.
Experimental for HER3 His tag: as §1

B1: Patri-Matu-Fc (bispecific antibody, human IgG1, kappa)
heavy: not shown
light 1: not shown
light 2: DIQMTQSPSSLSASVGDRVTITCSASSSVTYMYWYQQKPGKAPKLLIYDTSNLASGVPSRFSGSGSGTDYTFTISSLQPEDIATYYCQQWSSHIFTFGQGTKVEIKRTVAAPSVFIFPPSDEQLKSGTASVTCLLNNFYPREAKVQWKVDNALQSGNSQESVTEQDSKDSTYSLVSTLTLSKADYEKHKVYACEVTHQGLSSPVTKSFNRGEC
notes: Tetravalent tandem Fab-Fc: external Fabs patritumab (anti-HER3), internal Fabs matuzumab (anti-EGFR); 2 heavy chains and 4 light chains; also called 3Patri-1Matu-Fc
As to B1, the results for the EC50 with EGFR His tag and with HER3 His tag were 390 pM and 160 pM, respectively.

B2: Matuzumab (antibody, V domains shown)
VH: QVQLVQSGAEVKKPGASVKVSCKASGYTFTSHWMHWVRQAPGQGLEWIGEFNPSNGRTNYNEKFKSKATMTVDTSTNTAYMELSSLRSEDTAVYYCASRDYDYAGRYFDYWGQGTLVTVSS
VL: DIQMTQSPSSLSASVGDRVTITCSASSSVTYMYWYQQKPGKAPKLLIYDTSNLASGVPSRFSGSGSGTDYTFTISSLQPEDIATYYCQQWSSHIFTFGQGTKVEIK
notes: Parental monoclonal antibody used as positive control; also called EMD72000; parental antibody (anti-EGFR)
In the case of B2, in the assay with EGFR His tag, the EC50 (commonly the concentration giving half of the maximal effect) turned out to be 90 pM.

B3: BMX003-010 (humanized Patri-Cetu-Fc) (bispecific antibody, human IgG1, kappa)
heavy: not shown
light 1: not shown
light 2: EIVLTQSPDFQSVTPKEKVTITCRASQSIGTNIHWYQQKPDQSPKLLIKYASESISGVPSRFSGSGSGTDFTLTINSLEAEDAATYYCQQNNNWPTTFGAGTKLEIKRTVAAPSVFIFPPSDEQLKSGTASVTCLLNNFYPREAKVQWKVDNALQSGNSQESVTEQDSKDSTYSLVSTLTLSKADYEKHKVYACEVTHQGLSSPVTKSFNRGEC
On to B3, for which the binding result in assay [1] and in assay [2] was “binds” each time.

B4: BMX003-011 (humanized Patri-Cetu-Fc modified) (bispecific antibody, human IgG1, kappa)
heavy: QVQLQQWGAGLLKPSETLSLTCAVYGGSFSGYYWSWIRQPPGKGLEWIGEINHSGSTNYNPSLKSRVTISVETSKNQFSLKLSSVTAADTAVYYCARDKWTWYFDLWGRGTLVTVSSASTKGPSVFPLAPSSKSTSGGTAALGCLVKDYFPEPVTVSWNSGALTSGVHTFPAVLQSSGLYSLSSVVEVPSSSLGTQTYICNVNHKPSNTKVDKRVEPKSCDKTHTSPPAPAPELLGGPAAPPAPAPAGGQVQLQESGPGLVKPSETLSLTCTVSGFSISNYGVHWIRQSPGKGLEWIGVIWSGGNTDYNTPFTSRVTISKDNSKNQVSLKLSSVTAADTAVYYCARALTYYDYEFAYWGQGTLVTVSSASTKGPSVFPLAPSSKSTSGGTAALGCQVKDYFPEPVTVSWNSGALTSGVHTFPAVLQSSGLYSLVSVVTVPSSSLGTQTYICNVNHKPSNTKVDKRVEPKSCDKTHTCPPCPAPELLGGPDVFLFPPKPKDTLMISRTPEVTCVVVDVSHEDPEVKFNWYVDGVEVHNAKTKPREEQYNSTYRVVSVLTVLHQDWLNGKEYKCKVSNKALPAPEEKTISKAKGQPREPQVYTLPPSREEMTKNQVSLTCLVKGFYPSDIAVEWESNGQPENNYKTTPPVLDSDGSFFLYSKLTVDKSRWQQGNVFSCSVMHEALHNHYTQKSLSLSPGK
light 1: not shown
light 2: B3 light 2
notes: Identical to BMX003-010 except for 2 mutations in the Fc domain (S239D and I332E, printed '1332E')
Consider B4, for which the binding result in assay [1] and in assay [2] was “binds” in each case.
